Experimental data reported in the RNAGym collection of RNA variant scans (doi:10.1073/pnas.2313332121).

B1: TPR t1 (parent)
chain: GACCAAUCUGCCCUCAGAGCUCGAGAACAUCUUCGGAUGCAGAGGAGGCAGGCUUCGGUGGCGCGAUAGCGCCAACGUCCUCAACCUCCAAUGCAUCCCACCACAUGAUGAUGCCUGAAGAGCCUUGGUUUUUUG

Variants of: B1
Test: polymerase ribozyme fitness, log enrichment relative to wild type (log ratio); higher = more active; in vitro selection for triplet polymerase activity
Outline: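 The heterodimeric triplet polymerase ribozyme's subunits were each mutagenized into PCR-built libraries and transcribed. Every library was selected once, in triplicate, by annealing with a biotinylated primer, the partner subunit and triplets, incubating frozen at −7 °C, gel-excising extended constructs, capturing on streptavidin beads and running RT-PCR. Input and output libraries were Illumina-sequenced, with genotypes kept only at ≥10 input reads and ≥1 read per output. Fitness, from inverse-variance-weighted replicate averages, is the base-2 logarithm of genotype enrichment over wild-type enrichment.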

Point of comparison: C53G U78C C82U G120A, “polymerase ribozyme fitness (log ratio)” value 0.0778. Against it:
- A50U G113C — lower, -3.07
- A50U C70G A84C C115A — lower, -4.54
- C53G G117C — lower, -3.47
- C53G U54C A121C — higher, 1.78
- C53G C79A G120C U133A — lower, -4.39
- G52U G61U U81C C115U — lower, -4.28
- G52C G71U C73U C104U G120C — lower, -2.42
- G52U G77C — lower, -0.813
- C53U G122A — lower, -0.631
- C53A U78G C82A — higher, 0.638
- G52U A68G G77C — lower, -4.82
- G51A C124U — lower, -1.14
- G51A U55G A66U U112A — lower, -6.46
- G52U C62U C82A C102U C123G — lower, -2.65
- G52U C56U C62U U130A — lower, -1.37
- C53G U112A — higher, 0.666
- G51C C56A G93A — lower, -6.3
- C53U U92A G113A G117A C124A — lower, -5.57
- C53G G71U — lower, -0.129
- C53U C72A U130A — lower, -0.183
- C53A U54A C56U C101U — higher, 0.471
- G51C G61U A74C C114A G117A — lower, -7.43
- G51C U78A U106A — lower, -4.81
- G51A A84G A108C U112G — lower, -8.09
- C53U C62A U78C — lower, -1.46
- G51A A74C — lower, -4.63
- G51U G71A C85A C101U — lower, -7.55
- G52C C72G C104U — lower, -0.739
- G52U C82A A83U G127C — lower, -2.33
- G51C A111G — lower, -4.71
- G52A G60A — lower, -0.303
- C53U C123G — higher, 1.61
- C53U G63U A90C C104A A121G C123A — lower, -4.29
- G51U C82U C85U C94U — lower, -2.49
- C53A C88U C104U — higher, 0.665
- C53A U78C — lower, -0.332
- G51A G52A C101U — lower, -3.92
- G51U G122A — lower, -3.78
- G51U C56A G63C C98U C99U C124A U131G — lower, -7.53
- A50U U112A — within 0.2 log units, -0.102
- G51U G69U C88A C104U C123U — lower, -0.711
- C53G C72A C82G — lower, -0.867
- A50U C76G — lower, -1.31
- G51U U55A C72A U129A U133A — lower, -4.5
- G51C G52C — lower, -2.79
- G52U C76A A105U — lower, -3.02
- C53G C86A A118G — lower, -1.38
- A50U A100C A111G — lower, -2.38
- G52A G57A C82U C85A A121U — lower, -1.13
- C53G C56G — lower, -0.593
- C53G C56A — lower, -0.204
- G52U C73G — lower, -1.11
- G52A C72U — lower, -0.913
- C53A G60A A100U G120C C123G — lower, -1.07
- G52U G58C — lower, -0.674
- G51U C79A U87C U106A — lower, -2.68
- G52U A95G — lower, -0.694
- C53U U78C C124G — higher, 1.86
- G52A C62U G117U — lower, -2.86
- C53U C56U A91U — lower, -1.65
- C53A C88U U106G — lower, -1.18
- C53G U78C U81C U106A — lower, -3.38
- G52A C86G — lower, -0.287
- C53U G107U — lower, -4.06
- G52U C56A A66U C102A — lower, -6.29
- C53U C85G — lower, -2.01
- C53A C62G A108G — lower, -3.91
- C53A C56A U87C G120C — higher, 1.18
- C53A U112G — lower, -0.496
- C53G G60C C98A C102A — lower, -6.1
- A50U C104U — lower, -0.896
- C53U C64U G93U — lower, -1.53
- C53U U55G — lower, -0.16
- C53U C70U A74G — lower, -3.92
- C53A G71A C85A — lower, -4.06
- C53A C72G C88U C123G — higher, 1.36
- G52A U87C — higher, 0.43
- G52A G60C C70U U109A — lower, -5.53
- G52A G63U — lower, -2.08
- C53U U126C — lower, -1.07
- C53A C56U U106C — lower, -0.479
- A50U C53U A83G A84C C89G C115U — lower, -5.92
- G51U G77C — lower, -1.93
- G52A G71U U87A U131G — lower, -2.35
- C53A G93A — lower, -0.768
- C53A G135A — within 0.2 log units, 0.127
- G52U G69C C73A — lower, -2.55
- G52C C70U U106A — lower, -1.07
- C53G C86A — lower, -1.75
- C53A G60A U133A — lower, -1.16
- A50U C53U C64G A111U C124U — lower, -8.17
- A50U A119U — lower, -1.31
- C53G C80G C115A — lower, -2.69
- C53G C101G — lower, -1.65
- G52U G93A C114G — lower, -4.8
- A50U G71U — lower, -1.94
- C53A A84U G117U C123G — lower, -0.712
- G51A C62U C124U — lower, -1.17
- A50G U106G U116G — lower, -3.36
- G52A C53U C114U — lower, -2.38
- C53G C99U — lower, -3.54
- C53U C97U — lower, -0.844
- C53A U55A C88U C89U — lower, -0.643
- C53U U87A C97A — lower, -5.45
- C53A C123G — higher, 2.31
- G52U A68U A83C C101G C115U — lower, -7.12
- G52A G60C G61A — lower, -4.56
- C53G C114A U125C — lower, -2.07
- G52U C123A — lower, -0.303
- A50U G57C G60C C85G G113A — lower, -2.27
- C53U C56U C89A G120A — lower, -1.49
- A50U G57U G135A — lower, -2.6
- A50U G77A C97U U106C — lower, -2.11
- C53G G113A — lower, -1.24
- A50U C56G C70U U78C — lower, -5.64
- G51C C53U C56U C89G U112G — lower, -5.96
- A50U G61C G113U — lower, -5.56
- G51U A66U A111C — lower, -6.21
- C53G U106G — lower, -2.14
- G51A G128A — lower, -5.75
- G51A C70G — lower, -6.9
- C53U C62U — lower, -1.01
- G51U G71C U78C C114A — lower, -7.09
- G52C C72U C86U C89U A105U — lower, -4.77
- G52U C73G U92C C104U U116C U129A — lower, -4.98
- G52A A68G — lower, -3.34
- G52A G93A U130G — lower, -1.22
- G51U C53U G61U U130A — lower, -3.08
- C53U C104U — within 0.2 log units, 0.142
- G52U C88U C98A G120U — lower, -5.88
- C53U C80U — lower, -0.665
- G51U G58U G63A G117C — lower, -6.73
- G52U A105G — lower, -3.17
- G52A A84U C101U U106G U132A — lower, -1.69
- G52U C73U U96G A121G — higher, 1.57
- C53G C114G — lower, -3.08
- G51A G122A G135U — lower, -4.44
- G52C G127U — lower, -1.33
- G52U G61A C102U U126C — lower, -3.23
- A50G G110U — lower, -0.639
- C53A G69A C124A — lower, -0.263
- C53U U132A — lower, -0.215
- G52U U55A A83G U106A C115U — lower, -5.1
- G51U C64U G117A U132A — lower, -5.22
- C53G G77C — lower, -0.807
- C53G G117A U130C — lower, -1.46
- G51C G60C — lower, -4.64
- C53U G63A — lower, -1.18
- G52C C89G G127C — lower, -2.37
- A50U C53A U55C C73U — lower, -0.723
- G52A G117U — lower, -0.533
- G52A G117C — lower, -2.77
- G52C U116C — lower, -1.72
- C53A G60A — lower, -0.364
- C53G C114U G127C — lower, -2.8
- G51U G52U C56A U78A — lower, -3.39
- G52U G93U G110U — lower, -3.97
- C53G C73U G113C A121C — lower, -2.12
- A50U C70G — lower, -4.57
- G51A A68G C123G — lower, -4.37
- A50U C56U — lower, -0.861
- G51U G63A G117U — lower, -5.99
- G52U C64U C82G — lower, -2.19
- C53G U92G A105U — lower, -6.44
- G51U G52C C80U — lower, -3.13
- G52U C70U U78A C101G G128A — lower, -3.89
